B1: ZNF24 (parent)
chain: THTKEQILELVVLEQFVAILPKEL
B2: MNAT1 (parent)
chain: LAPIHKLEEALYEYQPLQIETYGP

Variants of: B1
Assay: protein stability index of a GFP-peptide fusion (GPS, HEK-293T) (PSI 1-6); higher = more stable
Conditions: c terminus: a fixed tail appended
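Also: lentivirally expressed fusions sorted by FACS into six bins by GFP to DsRed ratio, PSI derived from sequencing read proportions per bin multiplied by bin number.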

Protein stability index of substitutions, site by site:
P21: W 3.12 | C 3.76 | D 4.16 | G 2.21
Q15: P 2.4 | W 2.82 | A 2 | L 2.44 | V 3.51
T3: Q 2.81 | M 3.02 | P 2.96
V17: R 1.66 | N 1.72 | G 1.52 | I 2.94 | T 1.97
A18: D 2.32 | T 2.2 | Y 2.59 | Q 2.48
V12: W 2.42 | E 2.22 | N 2.14 | Q 2.05 | A 1.83 | R 1.94
E5: C 2.31 | S 1.57 | M 3.25 | L 2.78
L20: R 2.61 | E 2.23 | I 3.78 | F 2.83 | Q 3.05
I7: V 1.29 | Y 3.29 | W 2.51 | A 1.74
L24: M 2.8 | F 3.54 | C 2.88 | N 1.06 | V 4.07 | Y 3.41 | Q 1.81
E14: S 2.53 | W 3.05 | N 3.68 | A 2.14 | L 2.05 | V 1.16 | D 2.24 | I 3.12
F16: Q 2.01 | L 3.14 | C 1.77
T1: Y 2.79 | M 1.92 | C 3.51
I19: Y 2.18 | T 1.8 | N 1.7
H2: D 4.11 | V 2.41 | Y 2.19 | W 3.14
L10: M 2.69 | C 2.42 | N 2.23 | Y 2.69 | V 2.5
L8: H 2.1 | Q 1.95 | G 1.62 | T 1.75
E23: F 2.69 | R 2.77
L13: K 1.69 | G 1.84 | A 1.51 | S 1.55 | P 2.42 | E 1.9
E9: K 2.77 | P 2.93 | R 2.49 | N 2.82 | D 2.28 | F 2.82
V11: Q 2.05 | Y 1.91 | F 3.28 | S 2.03 | P 2.67
K4: T 1.83 | I 3.38 | A 2.93 | P 2.23 | E 1.58
K22: Y 2.9 | S 3.45 | T 2.89 | A 2.63 | M 3.15 | P 2.18 | Q 2.7

Variants of: B2
Assay: as above
Conditions: c terminus: a fixed tail appended

Protein stability index, by site and new letter:
H5: N 2.21 | I 1.71 | Q 2.92 | C 1.64 | L 1.88
K6: H 1.97 | R 1.8 | T 1.84 | P 2.13 | D 1.94 | Q 2.24 | C 1.64 | L 2.29 | E 2.27 | I 1.4
I4: S 2.3 | L 2.04 | Q 2.7 | A 2.95 | R 2.75 | G 3.06 | T 2.15 | D 2.78
I19: Q 3.62 | S 2.73 | Y 1.92 | L 2.89 | D 4.07 | W 2.32 | M 2.37 | G 2.85 | R 3.1 | H 2.85
Q15: T 2.2 | C 1.05 | I 1.66 | M 1.94 | E 2.36 | N 1.83 | K 2.26 | V 1.44
P16: S 2.57 | T 1.96 | Q 1.97 | H 2.43 | V 2.23
E8: M 3.31 | C 3.13 | D 2.52 | V 1.53 | Q 2.05 | F 3.18 | T 2 | G 2.02 | A 1.55 | K 2.52 | P 2.19 | I 3.59 | Y 2.08
Y14: F 2.1 | W 2.28 | V 2.75 | S 3.36 | I 2.52 | M 2.42 | Q 2.87 | A 3.19 | H 3.32 | C 2.54 | G 3.45
E20: W 2.88 | R 1.79 | P 2.59 | A 1.32 | S 1.71 | H 1.6 | K 3.27
G23: H 2.67 | P 1.67 | Y 1.87 | D 1.3 | S 2.1 | M 2.17 | Q 2.02 | C 1.44 | K 2.86
A2: Q 2.07 | F 3.4 | K 1.92 | E 2.47 | W 2.44 | S 2.29 | T 2.63 | G 1.45
E13: R 1.8 | N 1.61 | D 2.9 | C 1.64 | G 2.37 | P 1.68 | I 2.17 | T 2.14 | L 2.22 | A 1.53 | Y 1.61 | F 2.29 | S 1.58
Q18: Y 1.37 | C 2.21 | L 1.28 | V 2.25
L17: T 2.47 | P 2.89 | R 3.57 | A 2.5 | W 1.95 | D 3.96
L1: D 2.31 | T 2.33 | Q 2.47 | G 1.98 | Y 2.12 | C 1.25 | R 2.5 | K 2.33 | I 1.94 | M 1.87 | V 2.31 | N 2.79 | H 1.67
P3: M 2.48 | E 1.97 | Y 2.18 | R 2.1 | K 2.04 | L 2.95 | W 1.44 | N 1.32 | D 1.46
L7: K 3.54 | R 3.06 | I 2.15 | Y 2.85 | G 2.81 | S 3.52 | W 3.02 | E 3.98 | A 3.44
T21: D 2.31 | C 3.14 | K 2.5 | S 2.23 | A 2.6 | W 3.09 | H 1.62 | P 2.46 | R 2.09 | N 2.5
Y22: E 3.19 | N 2.74 | T 2.64 | V 1.76 | H 1.91 | K 2.8 | A 2.18 | M 2.01 | I 1.81 | S 2.4
P24: S 2.35 | L 3.08 | T 1.87 | Q 1.75 | K 2.29 | W 1.99 | A 2.14 | H 1.58
E9: V 3.14 | C 2.68 | R 1.91 | D 2.25 | K 2.26 | A 2.48 | L 3.09 | W 2.08 | P 2.25 | M 2.34 | F 2.25 | I 2.42
Y12: V 2.13 | F 1.19 | H 1.54 | A 1.27 | Q 1.88 | K 1.93 | G 2.64 | T 2.24 | W 2.39 | N 3.07 | I 2.64 | R 2.19 | S 1.87 | D 3.07 | M 2.25
A10: H 2.28 | G 2.88 | N 2.69 | C 2.09 | V 2.71 | E 3.04 | D 2.91 | S 2.28 | P 2.73 | K 2.52 | F 2.45 | T 1.79 | Y 2.35 | R 2.05 | Q 2.42
L11: V 2.9 | A 3.55 | G 3.48 | M 2.34 | C 2.69 | I 2.3 | F 2.07 | T 2.57
